The values below come from IntAct's records for PubMed 11571280.

B1: Polycomb protein Pcl (Drosophila melanogaster (Fruit fly)), Q24459 (parent)
chain: MMNNHFHLQHDHPPQNVAHPFMQQPSTAVPSAPPATYGYLAQPAGQQPQWMTTTYQILPPSVGPATVAKRYYATTGPQTTHPTHPSTIQITNSFAQQSTPPKQQAATSCSPFKANNIRIISTAPSVYSLNKPPQEAHSTYAPVQSYYLPSGGGQTAGQINLLAASGTGKQLQPPPLVPVTNSTSPPSTVVLDRINICINNHYTETPTSLSSSLTTAQQPSPIIPAIQHKAILPLIDSSTADSSSCSSSSVSSSSYSGTATTSAAVVIVDEPDSTTTTPQTPPTTPEAMSSPGKSSPSPPLLATQSLLKGVNSMKPSFKTVEAAPPTPPTPPSPPPPPPAPPVAAPSPAVTYALQEDVFIKCNDGRFYLGTIIDQTSDQYLIRFDDQSEQWCEPDKLRKLGGGSSITAGGGGASTTESTNTSPSGPMCVACKRSDIEDVVEICERCGRGYHRGCTVEIVTGSGIWSCKRCAKPMKMQQPVSHKITKPAGICRQLPYHADKLSWDEKHRVNEEQIYCYCGKPGKFDHNMLQCCKCRNWFHTQCMQNFKKKLLRGDMFFVFCCTVCNNGIEFVRRMQIEWVDVLHIALYNLRKHQHQKYHHLLNDIWPFILEQRHQLPICEKWRTLPETALMERLKQTLKDYSDRFVCGREFKRAPAFYALRHSGPPHIPKVFLEPHEELSDELLEKRFKLMLMPEEPDEGANELPKRVPKDVYEFNTDEDDPVETSEDEIPIKQIIEKAKKQAAQKADKHDELPLKPDLADDNANDGDPGKLPAPIPPLLDANSSRKRKAFRLSKRYDNSRNHCDLSSDENSSSSRGTSSLDLIIPPPVNFLGRNNPFLMATPKKASQGRSISVGTGVGVNGIINSIFKLKGTSKEQPRMVRTIKRRLSAKDITIGPNQEVRRRRTRRLTTAIEVISTTTINPIPSHYLPIYAKDLQPPAPPMGKPTHGRLLRQRPQKQSPSQSRRNSTSSTATSSSSNGIGAPGHSMLDLKQSVNKYFGGAMNRIDAGEPFAIRAKRRMGNGQVQYLVEWGGDTATTAIGLLGN

The assay covers variants of B1. The settings on record: with ez_drome E(z).
Regarding C430S, the “effect of a mutation on the interaction” value is listed as “decreasing interaction”.
To C430A belongs “decreasing interaction”; to C517S, “decreasing interaction”.
To C517A belongs “decreasing interaction”.
